Data: patent publication US7667100B2, “Nucleic acid compositions conferring herbicide resistance” (Dow AgroSciences LLC, priority 2002, dated 2010)

Experiments:
Nicotiana benthamiana [1] = experiment: Evaluation of auxin tolerance in greenhouse plants inoculated with clone transcript and sprayed with herbicide; format: in vivo; settings: for reproducibility of auxin tolerance from Trial #1 to Trial #2: greenhouse, 30% or more of test population tolerant by 14 dat
Procedure: All primary hit sequences were evaluated for tolerance in larger plants, maintained under greenhouse conditions as described below.
Plant Growth and Maintenance. Nb seeds were sown in 6.5 cm pots filled with Redi-earth medium (The Scotts Company, Marysville, Ohio) pre-wetted by injection of Hoagland's fertilizer solution [all from the Scotts Company: 147 kg Peters Excel 15-15-15 Cal-Mag, 68 kg Peters Excel 15-0-0 Cal-Lite (15% Ca), and 45 kg Peters Excel 10-0-0 MagNitrate (10% Mg) in hot tap water to 596 L total volume] into irrigation water at a ratio of 200:1, using an injection system (H. E. Anderson, Muskogee Okla,). Seededpots were placed in the greenhouse for 1 day, transferred to a 27° C. germination chamber (Carolina Greenhouses, Kinston, N.C.) for 2 days, and then returned to the greenhouse. Shade curtains (33% transmittance) were used in the greenhouse to reduce solar intensity. To ensure 16 hour day length and supplement solar radiation on overcast days, artificial lighting consisting of a 1:1 mixture of metal halide and high pressure Sylvania sodium lamps was used, delivering approximately 220 μmol/m^2/s. Evaporative cooling and steam heat were used to maintain a daytime set point of 27° C. and a nighttime temperature of 22° C. At approximately 7 days post sowing (dps), seedlings were thinned to one seedling per pot and at 17 to 21 dps, the pots were spaced farther apart to accommodate plant growth. Plants were watered with Hoagland's solution as required. Following inoculation, waste irrigation water was collected and treated with 0.5% sodium hypochlorite for 10 minutes to neutralize any viral contamination before discharging into the municipal sewer.
Plant Inoculation. For each clone, 50 test plants as well as 10 GFP and bar (Thompson et al., EMBO J. 6:2519 [19870]) negative control plants were inoculated as follows: 2.0 mL of inoculum per clone were prepared by combining equal volumes of NCAP transcript and FES buffer [0.1 M glycine, 0.06 M K2HPO4, 1% sodium pyrophosphate, 1% diatomaceous earth (Sigma Chemical Company, St. Louis, Mo.), and either 1% silicon carbide (Aldrich Chemical Company, Milwaukee, Wis.), or 1% Bentonite (Sigma Chemical Company, St. Louis, Mo.)]. The inoculum was applied to each plant at 17 days post sowing by pipetting onto the upper surface of leaves 3 and 4 (˜20 μL per leaf). The inoculum was then spread across each leaf surface using a 3″ cotton tipped applicator (Calapro Swab, Fisher Scientific, Pittsburgh, Pa.) and a gloved finger to support the leaf. Following inoculation the plants were misted with deionized water.
Infection Scoring. At 8 days post inoculation (dpi), the plants were visually examined and a numerical score was assigned to each plant to indicate the extent of viral infection symptoms: 0=no infection, 1=possible infection, 2=infection symptoms limited to leaves <50-75% fully expanded, 3=typical systemic infection, 4=atypically severe infection, often accompanied by moderate to severe wilting and/or necrosis. Plants receiving an infection rating of 0, 1, or 4 were discarded.
Herbicide spraying. At 9 dpi, the well infected plants (infection score of 3, sometimes 2) were divided into 3 treatment groups. Group 1, to be sprayed with solvent only, contained 4 plants per test clone (2 plants per negative control) and Groups 2 and 3, to be treated with 13 or 40 g ae/ha, respectively, each consisted of 12 test plants per clone and 2 plants per negative control. […]

Nicotiana benthamiana [2] = experiment: Cross-resistance testing against six auxin compounds (greenhouse); format: in vivo; settings: for tolerance to picloram (Compound #5): 10 g ae/ha and 1/2x; for tolerance to positive control 4-amino-3,6-dichloropyridine-2-carboxylic acid (Compound #6): 10 g ae/ha and 1/2x (5 g ae/ha); for tolerance to dicamba (Compound #3): 64 g ae/ha and 1/2x; for tolerance to quinclorac (Compound #1): 200 g ae/ha and 1/2x; for extent of cross-resistance to the six auxin compounds: two trials, two doses per auxin, thresholds 25% or 35% injury or less
Description: Six compounds, representing five classes of auxin chemistry, were selected for testing the extent of auxinic tolerance of five hit sequences (129965 (SEQ ID NO:10), 130213 (SEQ ID NO: 14), 130294 (SEQ ID NO:360), 130994 (SEQ ID NO:361), and 129870 (SEQ ID NO:359)). The compounds included the following: • 1) quinclorac (BASF Corp., Research Triangle, N.C.) • 2) (2,4-dichlorophenoxy) acetic acid (Dow AgroSciences, Indianapolis, Ind.) • 3) dicamba (Monsanto, St. Louis, Mo.) • 4) benazolin (AgrEvo USA Company, Wilmington, Del.) • 5) picloram (Dow AgroSciences, Indianapolis, Ind.) • 6) 4-amino-3,6-dichloropyridine-2-carboxylic acid (Dow AgroSciences, Indianapolis, Ind.) Compound #6 served as a positive control, as these five sequences were identified for their herbicide tolerant function using this auxin (see Example 9). Compound #1 represents the quinoline carboxylic acid chemical family, #2 is in the phenoxy carboxylic acid class, #3 is benzoic acid chemistry, #4 is unique to any currently defined class, and #5 is in the same family as the positive control, pyridine carboxylic acids.
The protocol was essentially the same as that described in Example 9 for greenhouse evaluations. However, an individual experiment consisted of 200 test plants plus 35 GFP and 35 bar negative control plants inoculated per clone. […] Two doses per auxin were tested, with as many as 12 well-infected test plants and 2 of each of the negative controls per dose.
The six auxin solutions were prepared by dissolving solid compound in General Purpose Solvent (GPS: 97%DMSO: 3% acetone) to achieve the following spray rates (g ae/ha) when using the spray applicator and parameters outlined in Example 9: Compound #1) 200; 2) 42; 3) 64; 4) 200; 5) 10; 6) 10. From each of these solutions, a portion was diluted with an equal volume of GPS, resulting in 1× (“high dose”) and ½× (“low dose”) concentrations for spraying. Before spray application, each auxin solution was mixed with an equal volume of diluent containing surfactants for effective penetration. The diluent was prepared as follows: 420 mL GPS, 460 mL DI water, 120 mL isopropyl alcohol, 10.167 mL Agri-Dex (Helena Chemical Co., Memphis, Tenn.), and 0.167 mL Triton X-155 (Sigma Chemical Co., St. Louis, Mo.). In addition to the 200 and 100 g ae/ha rates tested for Compound #4 (benazolin), a concentration of 250 g ae/ha was also formulated as described above and tested.
Plants were sprayed and evaluated as described in Example 9. FIG. 7 summarizes the sequences tested and the highest dose of the compounds against which tolerance was observed. […] Results are reported in FIG. 7 for each of the trials with each construct.
The positive control (Compound #6) was formulated differently in this set of evaluations from that described in Example 9, for consistency in the solvent/surfactant background from which to compare the activity of the individual sequences against each auxin. Thus, the spray rate used for evaluation was lower than previous experiments, 5 vs. 13 g ae/ha. The need to lower the dose with this formulation to prevent total chlorosis and/or necrosis was likely due to the addition of DMSO, Agri-Dex, and Triton X-155 which were not used in Example 9.

Row | Molecule | plants demonstrating auxin tolerance (Nicotiana benthamiana [1]; 14 days after treatment (dat), 130213 homolog trial, tolerance = 25% injury or less after 13 or 40 g ae/ha 4-amino-3,6-dichloropyridine-2-carboxylic acid) | reproducibility of auxin tolerance from Trial #1 to Trial #2 (Nicotiana benthamiana [1]) | tolerance to picloram (Compound #5) (Nicotiana benthamiana [2]) | tolerance to positive control 4-amino-3,6-dichloropyridine-2-carboxylic acid (Compound #6) (Nicotiana benthamiana [2]) | tolerance to dicamba (Compound #3) (Nicotiana benthamiana [2]) | tolerance to quinclorac (Compound #1) (Nicotiana benthamiana [2]) | extent of cross-resistance to the six auxin compounds (Nicotiana benthamiana [2])
1 | 130213: Poppy cDNA clone; auxin tolerance hit sequence (nucleic acid, Poppy) DNA: TTAATTAAGTCGACGAATTCATATGAAGAAATGGTTGAATTTATGGAAAAAGTAACAACAAATGTTGAATCAGAGGAACTTTCAGTTGAAGAGAGAAATTTATTGTCAGTTGCTTACAAAAATGTGATTGGTGCACGCAGAGCATCATGGAGAATTATTTCATCAATTGAACAGAAAGAAGAAAGCCGTGGTAACGAAGAGAATGTATTGACCATTCGTGATTATAGATCTAAGATTGAAACTGAACTTTCAGGCATCTGTGATGGGATTTTGAAGTTGCTTGATACTAGATTGATTCCATCTGCATCTTCTGGTGATTCTAAAGTGTTTTATTTGAAAATGAAAGGTGATTATCATCGTTATTTGGCTGAGTTTAAAACTGGTACCGAAAGGAAAGAAGCTGCTGAAAGTACCCTTTCTGCTTATAAATCTGCTCAGGATATCGCAACTGCTGAACTTGCACCCACTCACCCAATCAGGCTGGGACTTGCTCTTAACTTTCTCCGTCTTTTACTACGAGATCTTGAATTCTCCTGCCGTGCTTGTAATCTCGCCAAACAGGCATTTGATGAGGCTATCGCGGAGCTGGATACCCTTGGTGAAGAATCATACAAAGACAGCACTCTAATCATGCAGCTCCTTCGTGACAATCTTACTCTGTGGACCTCCGACATGCAGGATGATGGTGCAGATGAAATTAAAGAAGCATCCAAGCCTGAAGATGAACATTAATGATAGTTTGTCTGCCACATTTAGGATCTTACCTCCTCTCAGTTTGTTTTATTAAAAGGAGAAGGTGCTTTCTTGGTACACAACTCCTCCAAGTCTACTATTAATTATTAAGGAGTTTAGGGTGGGTACTGTTAGTTTGTCATTCTTCTTATCCTTTGTGCTCGTCTTTTCCTATCTTAATTCTTCTCTTAAAAGAGTTTGAAGTTATATGTTTATCTGAATCTGTGTGGGAACTCCGTTTTATCTAAATTATCTTTTAAGATGACGATAAAAAAAAAAAAAAAAAAA | 17% | reproducible auxin tolerance | additional tolerance to picloram and quinclorac when the 35% injury tolerance criterion was used | tolerance consistently occurred at the lower threshold (25% injury or less) | strongly effective | additional tolerance to picloram and quinclorac when the 35% injury tolerance criterion was used | tolerance was observed against four compounds
2 | 130294: Poppy cDNA clone; auxin tolerance hit sequence (nucleic acid, Poppy) DNA: TTAATTAAGTCGACGAATTCACATCTAAAGTCAACAACAAGAGCTTCTCTCTTCTCCTCGTCTCTGTTCTCCTCTCTTTTGCAATCCTCTCTCAATCTGCTGATGATTGTGTATACACAGTATACACAAGAACAGGATCAATCATCAAAGGAGGAACGGATTCAAAAATCTCACTAAGATTATACAGCAAATACGGTAAGTACATCGAGATCCCAAATCTTGAATCATGGGGTGGATTAATGGGTCCTGGTTACGATTATTTCGAAAGAGGTAATCTTGATATCTTCAGCGGAAGAGGTTATTGTCTGGGTTCACCGGTTTGTGCCATGAATCTGACTTCCGATGGTACTGGTTCCGGTCACGGATGGTATGTGAATTATGTTGAAGTTACTACTACCGGTGCACATATTAATTGTGGTCAACAGAATTTTGAAGTGGAAGATTGGCTTGCTCTTGATAGATCTCCTTATAGTCTTACCGCTATCAAGAATAATTGTAATCAGAAATTATCTGATCATGATTCTCATTCTGCTGATCAGTCTATGTAAAATTTGATCTCTTGTTTGATTCGGTGGTGGTCTAGTATGAGTGATCGGACGGTCGTCATTGTGTGTTGTAATGTTGAAATTATTTTCTTGAATAAAATGATTGAGTGAGTAGTGTTTGATTTTGCTTGGCCATCTTAGACATGATGGTGAGACTGTTTCTCGATTCGATGCAATTTTTTGGTTTTCTTGGTTGCAATCAATTCACGTTTGGTGAAAAAAAAAAAAAAAAAAAAAAAAAAAAAAAAAAAAAAAAAAAA |  | reproducible auxin tolerance | clear resistance to dicamba and picloram when the 35% rating was considered | tolerance consistently occurred at the lower threshold (25% injury or less) | clear resistance to dicamba and picloram when the 35% rating was considered | consistently tolerant to quinclorac exposure at the 25% injury threshold | tolerance was observed against four compounds
